Measured values: paper PMC10991328, “A distal enhancer guides the negative selection of toxic glycoalkaloids during tomato domestication”

Molecular target: MYC2-GST (Solanum lycopersicum (MicroTom), UniProt A0A3Q7HRZ6 1-689)
Assay: EMSA; strong binding; 20-40 ng protein; EMSA: 10 mM Tris-HCl pH 7.2, 50 mM KCl, 1 mM DTT, 2.5% glycerol, 0.05% NP-40, 50 ng/uL poly(dI-dC), room temperature, 20 min; pull-down: 10 mM HEPES pH 7.9, 100 mM KCl, 5 mM MgCl2, 10% glycerol, 1 mM DTT, 0.5% NP-40, 4 C overnight
Conditions: protein: recombinant; tags: GST (pGEX-4T-1); chain copies: 2; label: 3'-biotin; blunt

Sequence of MYC2-GST (A0A3Q7HRZ6 whole entry): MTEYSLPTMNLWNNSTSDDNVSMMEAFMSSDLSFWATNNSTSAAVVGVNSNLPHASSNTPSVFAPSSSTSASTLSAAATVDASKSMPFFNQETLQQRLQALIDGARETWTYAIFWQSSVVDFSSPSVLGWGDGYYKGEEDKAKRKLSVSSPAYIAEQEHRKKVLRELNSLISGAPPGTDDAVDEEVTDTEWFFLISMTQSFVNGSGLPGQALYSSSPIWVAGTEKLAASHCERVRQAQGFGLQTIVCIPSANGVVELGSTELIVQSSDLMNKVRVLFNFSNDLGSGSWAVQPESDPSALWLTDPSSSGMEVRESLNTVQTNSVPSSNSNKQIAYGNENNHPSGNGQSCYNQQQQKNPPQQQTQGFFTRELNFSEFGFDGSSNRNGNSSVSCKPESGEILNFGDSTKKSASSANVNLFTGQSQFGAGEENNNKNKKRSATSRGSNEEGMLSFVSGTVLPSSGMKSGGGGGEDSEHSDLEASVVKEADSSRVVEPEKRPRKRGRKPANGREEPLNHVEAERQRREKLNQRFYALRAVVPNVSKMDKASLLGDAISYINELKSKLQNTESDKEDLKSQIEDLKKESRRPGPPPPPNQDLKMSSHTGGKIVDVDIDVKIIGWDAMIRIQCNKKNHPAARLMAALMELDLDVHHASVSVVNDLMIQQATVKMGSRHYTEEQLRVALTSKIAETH

B1: GE1-1 probe (dsDNA)
DNA 1: ATGTATGTGTCTAATCAAACATCGGTGGCATAATTTTTTTTAGCATCAAA
DNA 2: TTTGATGCTAAAAAAAATTATGCCACCGATGTTTGATTAGACACATACAT
binding result: binds
